Results: US20080044360A1 (COLLAGEN MEDICAL, published 2008)
Where two headings read alike, the source gives them in different places. Bridge positions count the residues as written; N and C are the ends. Square brackets hold non-standard residues; d marks the D form. Primed or numbered codes have the meaning given here. Side chains are listed from the residue outwards. Ends that are not written are not given here. Gd^D = GdDOTAGA (gadolinium DOTAGA chelate); Bip = N[C@@H](Cc1ccc(-c2ccccc2)cc1)C(=O)O; Gd^T(3) = GdDTPA attached via thiourea; 1Nal = N[C@@H](Cc1cccc2ccccc12)C(=O)O; K(Gd^T)Gd^T = not defined here; Phg = N[C@H](C(=O)O)c1ccccc1; Dab = NCC[C@H](N)C(=O)O; Gd^T″ = GdDTPA-thiourea; Dap = NC[C@H](N)C(=O)O

How the values were obtained:
Experiment in all cases: dried collagen assay
[1] = biological target: T1, rat collagen, acid soluble, type I, rat tail (Upstate 08-115) (rat, UniProt P02454 152-1207; P02466 86-1125)
T1 construct: tissue extract, gelled and dried in wells; also called dried rat collagen
T1 sequence (P02454 152-1207, chain 1 of 2): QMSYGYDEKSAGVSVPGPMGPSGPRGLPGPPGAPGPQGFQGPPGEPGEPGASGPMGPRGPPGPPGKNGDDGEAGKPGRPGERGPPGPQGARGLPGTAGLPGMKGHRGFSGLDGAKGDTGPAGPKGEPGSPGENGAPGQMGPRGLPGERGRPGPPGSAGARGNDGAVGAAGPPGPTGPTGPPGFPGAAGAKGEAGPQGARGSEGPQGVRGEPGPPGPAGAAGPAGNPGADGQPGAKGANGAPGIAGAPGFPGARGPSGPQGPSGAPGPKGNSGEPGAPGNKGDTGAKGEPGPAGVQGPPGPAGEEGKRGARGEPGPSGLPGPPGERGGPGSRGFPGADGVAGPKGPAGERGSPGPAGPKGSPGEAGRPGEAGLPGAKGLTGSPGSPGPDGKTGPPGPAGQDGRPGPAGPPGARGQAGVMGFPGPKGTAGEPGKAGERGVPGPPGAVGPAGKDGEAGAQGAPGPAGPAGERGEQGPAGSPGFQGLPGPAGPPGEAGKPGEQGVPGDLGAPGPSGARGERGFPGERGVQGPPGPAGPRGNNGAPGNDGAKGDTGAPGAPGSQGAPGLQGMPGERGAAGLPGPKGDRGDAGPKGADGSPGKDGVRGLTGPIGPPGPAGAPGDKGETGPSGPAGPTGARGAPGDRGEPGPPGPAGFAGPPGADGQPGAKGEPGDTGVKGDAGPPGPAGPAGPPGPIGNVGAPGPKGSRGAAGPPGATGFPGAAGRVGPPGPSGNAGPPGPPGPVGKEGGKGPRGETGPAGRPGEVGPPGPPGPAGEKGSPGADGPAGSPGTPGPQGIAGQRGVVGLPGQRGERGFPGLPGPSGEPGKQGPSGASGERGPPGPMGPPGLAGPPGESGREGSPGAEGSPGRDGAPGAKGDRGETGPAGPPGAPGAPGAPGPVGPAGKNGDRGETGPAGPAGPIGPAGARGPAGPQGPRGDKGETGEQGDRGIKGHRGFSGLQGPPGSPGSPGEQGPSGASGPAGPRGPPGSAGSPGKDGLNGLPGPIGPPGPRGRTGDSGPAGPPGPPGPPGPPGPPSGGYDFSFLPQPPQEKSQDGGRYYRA
T1 sequence (P02466 86-1125, chain 2 of 2): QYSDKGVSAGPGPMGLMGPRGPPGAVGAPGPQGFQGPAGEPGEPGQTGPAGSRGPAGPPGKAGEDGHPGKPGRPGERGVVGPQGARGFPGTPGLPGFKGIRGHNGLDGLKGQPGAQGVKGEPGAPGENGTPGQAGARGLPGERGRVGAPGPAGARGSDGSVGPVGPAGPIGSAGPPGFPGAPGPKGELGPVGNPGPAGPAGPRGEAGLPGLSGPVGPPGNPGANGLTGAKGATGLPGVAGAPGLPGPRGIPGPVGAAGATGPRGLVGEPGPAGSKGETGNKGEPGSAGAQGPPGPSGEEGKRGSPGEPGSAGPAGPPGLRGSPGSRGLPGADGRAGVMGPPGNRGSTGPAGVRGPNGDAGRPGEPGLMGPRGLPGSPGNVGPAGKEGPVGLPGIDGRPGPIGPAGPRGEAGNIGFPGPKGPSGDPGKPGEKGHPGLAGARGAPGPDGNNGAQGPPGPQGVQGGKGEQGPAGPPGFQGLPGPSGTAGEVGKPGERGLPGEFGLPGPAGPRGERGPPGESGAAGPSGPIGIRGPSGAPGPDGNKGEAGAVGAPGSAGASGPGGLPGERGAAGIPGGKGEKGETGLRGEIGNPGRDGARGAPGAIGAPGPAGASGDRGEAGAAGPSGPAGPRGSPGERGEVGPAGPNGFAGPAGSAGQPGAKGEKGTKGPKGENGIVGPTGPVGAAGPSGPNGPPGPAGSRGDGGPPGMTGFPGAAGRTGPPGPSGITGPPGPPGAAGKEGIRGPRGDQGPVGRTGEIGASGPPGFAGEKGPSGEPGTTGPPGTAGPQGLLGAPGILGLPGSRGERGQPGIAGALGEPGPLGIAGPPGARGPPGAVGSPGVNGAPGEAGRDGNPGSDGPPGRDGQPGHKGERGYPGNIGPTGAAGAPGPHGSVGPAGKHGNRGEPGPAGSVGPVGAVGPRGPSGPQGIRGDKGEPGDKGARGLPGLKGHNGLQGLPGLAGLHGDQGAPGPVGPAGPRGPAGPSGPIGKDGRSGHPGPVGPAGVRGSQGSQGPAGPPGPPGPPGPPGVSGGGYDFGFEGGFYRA

[2] = biological target: T2, human collagen type I, acid soluble, extracted from placenta (Sigma C7774) (human, UniProt P02452 162-1218; P08123 80-1119)
T2 construct: tissue extract, gelled and dried in wells; also called dried human collagen; h-Collagen
T2 sequence (P02452 162-1218 limits assumed, chain 1 of 2): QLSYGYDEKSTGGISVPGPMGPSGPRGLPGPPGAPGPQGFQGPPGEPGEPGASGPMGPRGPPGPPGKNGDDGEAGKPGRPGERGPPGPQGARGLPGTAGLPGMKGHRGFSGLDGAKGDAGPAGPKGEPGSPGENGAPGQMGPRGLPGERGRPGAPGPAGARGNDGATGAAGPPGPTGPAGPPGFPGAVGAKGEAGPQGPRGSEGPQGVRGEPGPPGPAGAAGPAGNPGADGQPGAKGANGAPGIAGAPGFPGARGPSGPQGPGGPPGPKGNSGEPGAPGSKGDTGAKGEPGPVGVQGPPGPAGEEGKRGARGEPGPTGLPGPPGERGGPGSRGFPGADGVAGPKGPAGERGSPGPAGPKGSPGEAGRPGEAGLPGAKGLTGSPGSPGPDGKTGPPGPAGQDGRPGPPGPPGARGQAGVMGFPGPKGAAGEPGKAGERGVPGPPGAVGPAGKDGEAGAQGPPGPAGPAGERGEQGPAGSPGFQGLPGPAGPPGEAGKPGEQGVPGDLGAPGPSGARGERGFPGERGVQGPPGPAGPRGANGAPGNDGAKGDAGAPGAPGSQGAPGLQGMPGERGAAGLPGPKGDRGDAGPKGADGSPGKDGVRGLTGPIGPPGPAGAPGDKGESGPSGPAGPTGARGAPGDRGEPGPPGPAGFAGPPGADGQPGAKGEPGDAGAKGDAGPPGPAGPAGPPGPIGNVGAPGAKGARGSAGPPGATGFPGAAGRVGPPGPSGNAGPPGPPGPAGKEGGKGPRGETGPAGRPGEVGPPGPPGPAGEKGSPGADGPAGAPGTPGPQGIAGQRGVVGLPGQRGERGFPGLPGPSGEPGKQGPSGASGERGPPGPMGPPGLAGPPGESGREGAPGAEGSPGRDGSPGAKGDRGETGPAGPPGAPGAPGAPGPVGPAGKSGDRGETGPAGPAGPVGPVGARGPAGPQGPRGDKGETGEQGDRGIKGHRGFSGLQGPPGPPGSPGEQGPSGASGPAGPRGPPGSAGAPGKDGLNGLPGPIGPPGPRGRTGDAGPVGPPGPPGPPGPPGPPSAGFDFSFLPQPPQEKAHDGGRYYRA
T2 sequence (P08123 80-1119 limits assumed, chain 2 of 2): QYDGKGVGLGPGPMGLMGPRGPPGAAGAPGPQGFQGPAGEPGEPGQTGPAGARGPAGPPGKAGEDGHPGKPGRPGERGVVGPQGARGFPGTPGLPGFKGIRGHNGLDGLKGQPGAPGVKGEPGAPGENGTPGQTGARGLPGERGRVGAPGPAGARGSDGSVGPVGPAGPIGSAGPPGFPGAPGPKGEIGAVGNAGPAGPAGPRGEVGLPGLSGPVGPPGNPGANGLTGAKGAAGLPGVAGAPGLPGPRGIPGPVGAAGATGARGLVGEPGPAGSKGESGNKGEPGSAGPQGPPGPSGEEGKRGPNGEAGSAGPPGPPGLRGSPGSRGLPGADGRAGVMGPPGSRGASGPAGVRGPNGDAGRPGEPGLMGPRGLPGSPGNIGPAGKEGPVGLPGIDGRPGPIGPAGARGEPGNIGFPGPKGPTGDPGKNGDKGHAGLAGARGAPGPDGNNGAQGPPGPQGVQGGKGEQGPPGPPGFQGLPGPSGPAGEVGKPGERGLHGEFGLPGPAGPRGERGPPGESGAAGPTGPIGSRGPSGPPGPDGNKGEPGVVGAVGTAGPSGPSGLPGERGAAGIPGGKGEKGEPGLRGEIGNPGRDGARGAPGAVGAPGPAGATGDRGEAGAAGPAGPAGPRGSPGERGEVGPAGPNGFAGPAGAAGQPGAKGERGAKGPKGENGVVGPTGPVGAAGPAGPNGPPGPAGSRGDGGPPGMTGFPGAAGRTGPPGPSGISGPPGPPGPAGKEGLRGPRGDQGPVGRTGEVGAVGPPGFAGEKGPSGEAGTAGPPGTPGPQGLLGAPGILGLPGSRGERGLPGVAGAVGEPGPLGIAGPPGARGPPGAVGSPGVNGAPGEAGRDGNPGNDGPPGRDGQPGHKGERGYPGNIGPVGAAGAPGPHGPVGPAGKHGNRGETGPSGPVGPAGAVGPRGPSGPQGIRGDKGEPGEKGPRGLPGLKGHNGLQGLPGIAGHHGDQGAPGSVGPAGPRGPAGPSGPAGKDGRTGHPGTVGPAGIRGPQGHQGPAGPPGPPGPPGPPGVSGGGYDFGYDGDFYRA

[3] = biological target: T2, human collagen type I, acid soluble, …; remark: listed apart in the source
Protocol: An additional 90 μL is reserved in a HPLC glass vial as a measure of the total concentration.

Row | % bound [1] [%] | % bound [2] [%] | % bound [3] [%] | Binder
1 | 87 | 89 | – | {Gd^T″}-GK([Gly-Gd^T″])WHCYT[Dap](Gd^T″)FPHHYCVY[Bip] (disulfide 5-14) [Compound ID 1006]
2 | 89 | 92 | – | {Gd^T″}-GK([Gly-Gd^T″])WHCYTK(Gd^T″)FPHHYCVYYY (disulfide 5-14 (inferred)) [Compound ID 1010]
3 | 45 | 44 | – | {Gd^T″}-[Dap](Gd^T″)[Dap]([Dap-Gd^T″-Gd^T″])WHCYTYFPHHYCVYG (disulfide 5-14; also: X2: inner Dap bears two Gd^T) [Compound ID 1002]
4 | 81 | 73 | – | {Gd^T″}-GYK([Tyr-Gly-Gd^T″])WHCTTYFPHHYCLYG (disulfide 6-15 (inferred); not fully specified (C-terminus)) [Compound ID 981]
5 | 59 | 58 | – | {Gd^T″}-GFK([Phe-Gly-Gd^T″])WHCTTYFPHHYCLYG (disulfide 6-15 (inferred); not fully specified (C-terminus)) [Compound ID 983]
6 | 47 | 40 | – | {Gd^T″}-GVK([Val-Gly-Gd^T″])WHCTTYFPHHYCLYG (disulfide 6-15 (inferred); not fully specified (C-terminus)) [Compound ID 982]
7 | 69 | 67 | – | {Gd^T″}-GHK([His-Gly-Gd^T″])WHCTTYFPHHYCLYG (disulfide 6-15 (inferred); not fully specified (C-terminus)) [Compound ID 984]
8 | – | – | 24 | NWKCWGVVKWECIWA (disulfide 4-12 (inferred), cyclic, disulfide) [SEQ ID NO 5]
9 | 95 | 90 | – | {Gd^T″}-GK([Gly-Gd^T″])WHCYT[Dab](Gd^T″)FPHHYCVY[Bip] (disulfide 5-14) [Compound ID 1005]
10 | 93 | 94 | – | {Gd^T″}-K(Gd^T″)WHCYTK(Gd^T″)FPHHYCVY[Bip] (disulfide 4-13) [Compound ID 1008]
11 | 96 | 93 | – | {Gd^T″}-GK([Gly-Gd^T″])WHCYTK(Gd^T″)FPHHYCVY[Bip]R (disulfide 5-14) [Compound ID 1009]
12 | 50 | 48 | – | {Gd^D}-K(Gd^D)K(Gd^D)AWHCYTYFPHHYCVYG (disulfide 6-15 (inferred)) [Compound ID 1016]
13 | 18 | 25 | – | {Gd^D}-K(Gd^D)K(Gd^D)LWHCYTYFPHHYCVYG (disulfide 6-15 (inferred)) [Compound ID 1017]
14 | 55 | 53 | – | {Gd^D}-K(Gd^D)K(Gd^D)YWHCYTYFPHHYCVYG (disulfide 6-15 (inferred)) [Compound ID 1018]
15 | 64 | 75 | – | {Gd^T(3)}-GK([Gly-Gd^T(3)])WHCYTYFPHH[1Nal]CLYG (disulfide 5-14; not fully specified (C-terminus)) [Compound ID 992]
16 | 67 | 76 | – | {Gd^T″}-GK([Gly-Gd^T″])WHCYTYFPHHYCLYGK(Gd^T″) (disulfide 5-14 (inferred)) [Compound ID 996]
17 | 57 | 62 | – | {Gd^T″}-GK([Gly-Gd^T″])WHCTTYFPHHYCLYYK(Gd^T″) (disulfide 5-14 (inferred); not fully specified (C-terminus)) [Compound ID 976]
18 | 71 | 69 | – | {Gd^T″}-GK([Gly-Gd^T″])WHCYTYFPHHYCLY[dY]K(Gd^T″) (disulfide 5-14 (inferred); not fully specified (C-terminus)) [Compound ID 988]
19 | 64 | 70 | – | {Gd^T″}-GK([Gly-Gd^T″])WHCYTYFPHHYCVYYK(Gd^T″) (disulfide 5-14 (inferred); not fully specified (C-terminus)) [Compound ID 975]

Row | % bound [1] [%] | % bound [2] [%] | % bound [3] [%] | Binder
20 | 42 | 51 | – | {Gd^T″}-GK([Gly-Gd^T″])WHCYTK(Gd^T″)FPHHYCLYGK(Gd^T″) (disulfide 5-14 (inferred)) [Compound ID 995]
21 | 70 | 75 | – | {Gd^T″}-GQWHCYTK(Gd^T″)FPHHYCLYGK(Gd^T″) (disulfide 5-14 (inferred); not fully specified (C-terminus)) [Compound ID 993]
22 | 84 | 86 | – | {Gd^T″}-GQWHCYTYFPHHYCLYGK(Gd^T″) (disulfide 5-14 (inferred); not fully specified (C-terminus)) [Compound ID 994]
23 | 68 | 62 | – | {Gd^T″}-GK([Gly-Gd^T″])WHCYTYFPHHYCLYYK(Gd^T″) (disulfide 5-14 (inferred); not fully specified (C-terminus)) [Compound ID 987]
24 | 68 | 56 | – | {Gd^T″}-GK([Gly-Gd^T″])WHCYTYFPHHYCLYFK(Gd^T″) (disulfide 5-14 (inferred); not fully specified (C-terminus)) [Compound ID 985]
25 | 69 | 71 | – | {Gd^T″}-GK([Gly-Gd^T″])WHCYTYFPHHYCVYGK(Gd^T″) (disulfide 5-14 (inferred); not fully specified (C-terminus)) [Compound ID 974]
26 | 74 | 67 | – | {Gd^T″}-GK([Gly-Gd^T″])WHCYTYFPHHYCLYVK(Gd^T″) (disulfide 5-14 (inferred); not fully specified (C-terminus)) [Compound ID 989]
27 | 55 | 54 | – | {Gd^D}-GK([Gly-Gd^D])QWHCTTYFPHHYCLYG (disulfide 6-15 (inferred)) [Compound ID 961]
28 | 92 | 87 | – | {Gd^T″}-G[Dab]([Gly-Gd^T″])WHCYTK(Gd^T″)FPHHYCVY[Bip] (disulfide 5-14) [Compound ID 1007]
29 | 81 | 83 | – | {Gd^D}-GK([Gly-Gd^D])WHCTTK(Gd^D)FPHHYCLY[Bip] (disulfide 5-14) [Compound ID 1001]
30 | 90 | 91 | – | {Gd^T″}-GK([Gly-Gd^T″])WHCYTK(Gd^T″)FPHHYCVY[Bip] (disulfide 5-14) [Compound ID 1004]
31 | 92 | 91 | – | {Gd^T″}-GK([Gly-Gd^T″])WHCYTK(Gd^T″)FPHHYCK(Gd^T″)Y[Bip] (disulfide 5-14) [Compound ID 1012]
32 | 30 | 29 | – | {Gd^D}-K(Gd^D)K(Gd^D)GWHCYTYFPHHYCTYG (disulfide 6-15 (inferred)) [Compound ID 1015]
33 | 36 | 51 | – | {Gd^T″}-GQWHCTTRFPHHYCLYGK(K(Gd^T)Gd^T) (disulfide 5-14 (inferred); reading uncertain) [Compound ID 955]
34 | 43 | 40 | – | {Gd^T(3)}-GK([Gly-Gd^T(3)])WHCTTYFPHHYCLY[Bip]K(Gd^T(3)) (disulfide 5-14; not fully specified (C-terminus)) [Compound ID 977]
35 | 67 | 60 | – | {Gd^T(3)}-GK([Gly-Gd^T(3)])WHCYTYFPHHYCLY[Phg]K(Gd^T(3)) (disulfide 5-14; not fully specified (C-terminus)) [Compound ID 986]
36 | 34 | 30 | – | {Gd^T″}-K(Gd^T″)K(K(Gd^T)Gd^T)GQWHCTTYFPHHYCLYG (disulfide 7-16 (inferred); reading uncertain) [Compound ID 960]
37 | 14 | 11 | – | {Gd^T″}-AWHCTTRFPAHYCLYG (disulfide 4-13 (inferred)) [Compound ID 937]
